Assay [1] addresses T1, virus-like particles (VLPs) of BK polyomavirus VP-1 protein, serotype Ib2 (BK virus (BKPyV), serotype Ib2, PA …, UniProt P03088 1-362).
T1 construct: native VLPs; also the immunogen; also called VLP Ib2; BK Ib2
T1 chain: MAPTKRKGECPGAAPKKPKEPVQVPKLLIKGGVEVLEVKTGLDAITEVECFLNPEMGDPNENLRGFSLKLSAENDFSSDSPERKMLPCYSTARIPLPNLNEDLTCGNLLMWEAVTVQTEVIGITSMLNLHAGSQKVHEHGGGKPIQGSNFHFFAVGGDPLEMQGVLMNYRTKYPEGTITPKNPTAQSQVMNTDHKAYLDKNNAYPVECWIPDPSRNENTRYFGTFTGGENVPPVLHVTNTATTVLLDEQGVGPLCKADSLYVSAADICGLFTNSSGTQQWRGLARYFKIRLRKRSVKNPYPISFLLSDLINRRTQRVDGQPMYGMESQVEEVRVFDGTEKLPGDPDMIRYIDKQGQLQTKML
Description: ELISA on coated VLP (detection limit OD>0.5).
Description: (§1) To do this, the VLPs produced were deposited at a concentration of 1 μg/mL in PBS and incubated overnight at +4° C. The wells were then blocked for 1 h at +37° C. with a PBS/FCS (phosphate-buffered saline/fetal calf serum) mixture. After dilution in a dilution buffer containing FCS, PBS and Tween® 20, the various hybridoma culture supernatants were added for 1 h at +37° C. The wells were washed four times in a row with Wash Buffer and a secondary anti-mouse antibody coupled to peroxidase was added to the 1:2000 dilution for 1 h at +37° C. The wells were washed four more times and the substrate (OPD (ortho phenylene diamine)+H₂O₂) was added for 30 min at room temperature. A stop solution (H₂SO₄ 4N) was then added and each well was read by measuring the absorbance at 492 nm with a spectrophotometer. The value obtained for the average of the control wells (PBS in the first step) is subtracted from the optical density values obtained for each well.

Assay [2] deals with T2, virus-like particles (VLPs) of JC polyomavirus VP-1 protein (JC virus (JCPyV), UniProt P03089 1-354, Assembled into virus-like particles (many VP-1 copies); the letters give one VP-1 chain.).
T2 construct: Expressed in insect cells by baculovirus; VLPs coated on ELISA plates; also called JCPyV VLPs; JCPyV
T2 sequence (P03089 whole entry): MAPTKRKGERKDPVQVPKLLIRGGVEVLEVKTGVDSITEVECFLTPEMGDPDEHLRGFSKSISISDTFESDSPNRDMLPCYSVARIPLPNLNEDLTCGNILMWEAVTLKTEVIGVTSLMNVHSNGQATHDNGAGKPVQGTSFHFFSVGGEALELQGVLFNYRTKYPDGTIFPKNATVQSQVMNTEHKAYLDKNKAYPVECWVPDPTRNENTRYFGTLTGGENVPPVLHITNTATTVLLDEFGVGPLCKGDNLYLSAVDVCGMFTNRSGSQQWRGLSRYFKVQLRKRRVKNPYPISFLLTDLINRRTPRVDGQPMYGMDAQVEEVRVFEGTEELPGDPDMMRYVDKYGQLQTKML
Description: ELISA on coated VLP (detection limit OD>0.5). (In general: An ELISA detects its analyte on a solid surface through an enzyme-linked reagent.)
Description: as §1

In assay [3] the target is T1, virus-like particles (VLPs) of BK …. Description: ELISA on not denatured VLP (threshold OD>0.5).
Description: (§2) The wells were then blocked for 1 hour at +37° C. with a PBS/SVF mixture. After dilution in a dilution buffer containing SVF, PBS and Tween® 20, the individual culture supernatants or purified antibodies were added for 1 hour at +37° C. The wells were washed four times in a row with Wash Buffer and a secondary anti-mouse peroxidase antibody was added to the 1/2000 dilution for 1 hour at +37° C. The wells were washed again four times in a row and the substrate was added for 30 minutes at room temperature. A stop solution was added and then each well was read by measuring the absorbance at 492 nm with a spectrophotometer. The value obtained for the average of the control wells (PBS in the first step) was subtracted from the optical density values obtained for each well (detection threshold: OD>0.5).
The target of assay [4] is T3, virus-like particles (VLPs) of BK polyomavirus VP-1 protein, serotype II (BK virus (BKPyV), serotype II, UniProt P14996 1-362).
T3 construct: native VLPs; also called VLP II
T3 chain: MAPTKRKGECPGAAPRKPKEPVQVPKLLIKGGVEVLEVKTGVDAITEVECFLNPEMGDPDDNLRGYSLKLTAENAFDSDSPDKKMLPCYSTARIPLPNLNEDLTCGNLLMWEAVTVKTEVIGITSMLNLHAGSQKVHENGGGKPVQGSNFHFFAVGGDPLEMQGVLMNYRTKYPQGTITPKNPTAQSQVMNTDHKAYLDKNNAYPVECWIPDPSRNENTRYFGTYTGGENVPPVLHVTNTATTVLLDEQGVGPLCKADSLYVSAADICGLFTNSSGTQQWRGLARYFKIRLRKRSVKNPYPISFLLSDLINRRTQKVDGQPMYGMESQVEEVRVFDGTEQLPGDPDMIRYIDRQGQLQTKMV
Description: ELISA on not denatured VLP (threshold OD>0.5).
Description: as §2

The target in assay [5] is T4, virus-like particles (VLPs) of BK polyomavirus VP-1 protein, serotype IV (BK virus (BKPyV), serotype IV, UniProt P14996 1-362).
T4 construct: native VLPs; also called VLP IV
T4 chain: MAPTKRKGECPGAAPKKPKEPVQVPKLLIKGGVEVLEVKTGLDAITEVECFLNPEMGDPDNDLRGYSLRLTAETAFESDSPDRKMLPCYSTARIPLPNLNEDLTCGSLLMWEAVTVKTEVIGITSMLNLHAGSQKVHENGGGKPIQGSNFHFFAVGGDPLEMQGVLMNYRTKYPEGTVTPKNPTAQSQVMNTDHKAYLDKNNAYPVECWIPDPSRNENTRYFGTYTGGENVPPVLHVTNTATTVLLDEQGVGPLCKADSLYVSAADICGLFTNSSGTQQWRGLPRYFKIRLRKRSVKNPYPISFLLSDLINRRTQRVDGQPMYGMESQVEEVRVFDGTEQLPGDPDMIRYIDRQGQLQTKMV
The experiment in a line: ELISA on not denatured VLP (threshold OD>0.5).
Description: as §2

The target in assay [6] is T5, virus-like particles (VLPs) of BK polyomavirus VP-1 protein, serotype Ia (BK virus (BKPyV), serotype Ia, UniProt P03088 1-361).
T5 construct: self-assembled native VLPs coated on ELISA plates; also called VLP Ia; BKV VP-1, serotype Ia
T5 chain: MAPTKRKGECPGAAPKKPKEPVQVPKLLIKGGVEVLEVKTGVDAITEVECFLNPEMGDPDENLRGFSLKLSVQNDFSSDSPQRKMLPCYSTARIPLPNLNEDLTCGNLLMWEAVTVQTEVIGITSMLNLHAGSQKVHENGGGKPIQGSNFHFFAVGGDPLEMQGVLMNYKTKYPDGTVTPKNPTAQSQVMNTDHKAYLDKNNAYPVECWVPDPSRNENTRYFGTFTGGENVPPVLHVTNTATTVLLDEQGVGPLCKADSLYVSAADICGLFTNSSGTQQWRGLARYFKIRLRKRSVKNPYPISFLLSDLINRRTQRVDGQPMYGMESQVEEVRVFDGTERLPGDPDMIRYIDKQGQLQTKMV
Description: ELISA on not denatured VLP (threshold OD>0.5).
Description: as §2

Assay [7] addresses T1, virus-like particles (VLPs) of BK …. The experiment in a line: ELISA on coated VLP.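 Note: hybridoma culture supernatants (mouse antibodies) tested on wells coated with 1 µg/mL VLPs, peroxidase anti-mouse detection with OPD, background from PBS-coated control wells subtracted.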
Description: as §1
Assay [8] deals with T3, virus-like particles (VLPs) of BK …. The experiment in a line: ELISA on coated VLP.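 Note: hybridoma culture supernatants (mouse antibodies) tested on wells coated with 1 µg/mL VLPs, peroxidase anti-mouse detection with OPD, background from PBS-coated control wells subtracted.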
Description: as §1
Assay [9] addresses T4, virus-like particles (VLPs) of BK …. The experiment in a line: ELISA on coated VLP.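 Note: hybridoma culture supernatants (mouse antibodies) tested on wells coated with 1 µg/mL VLPs, peroxidase anti-mouse detection with OPD, background from PBS-coated control wells subtracted.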
Description: as §1
Assay [10] addresses T5, virus-like particles (VLPs) of BK …. The experiment in a line: ELISA on coated VLP.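 Note: hybridoma culture supernatants (mouse antibodies) tested on wells coated with 1 µg/mL VLPs, peroxidase anti-mouse detection with OPD, background from PBS-coated control wells subtracted.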
Description: as §1
Assay [11] addresses T6, virus-like particles (VLPs) of BK polyomavirus VP-1 protein, serotype III (BK virus (BKPyV), serotype III, UniProt P14996 1-362).
T6 construct: native VLPs; also called VLP III
T6 chain: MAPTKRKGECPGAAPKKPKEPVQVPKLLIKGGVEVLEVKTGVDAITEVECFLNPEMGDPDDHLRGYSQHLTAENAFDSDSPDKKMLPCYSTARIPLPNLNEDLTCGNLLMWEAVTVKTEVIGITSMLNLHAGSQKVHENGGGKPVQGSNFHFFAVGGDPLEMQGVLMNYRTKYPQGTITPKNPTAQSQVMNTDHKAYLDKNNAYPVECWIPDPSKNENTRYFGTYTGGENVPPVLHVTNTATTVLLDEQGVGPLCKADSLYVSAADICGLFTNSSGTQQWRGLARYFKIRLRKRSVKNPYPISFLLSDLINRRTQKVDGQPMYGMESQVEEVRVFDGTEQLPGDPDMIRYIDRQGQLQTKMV
The experiment in a line: ELISA on coated VLP.
Description: as §1

In assay [12] the target is T2, virus-like particles (VLPs) of JC …. The experiment in a line: ELISA on coated JCPyV VLPs.

B1: monoclonal antibody ‘14D6’ derived from hybridoma 14D6 (antibody, V domains shown)
VH: DVQLQESGPGLVKPSQSLSLTCSVTGYSITSGYYWNWIRQFPGNKLEWMGYISYDGSNNYNPSLKNRISITRDTSKNQFFLKLNSVTTEDTATYYCARWVGDWYFDVWGAGTTVTVSS
VL: DIVLTQSPASLAVSLGQRATISCRASKSVSPSGYSYMHWYQQKPGQPPKLLIYLASNLESGVPARFSGSGSGTDFTLNIHPVEEEDAATYYCQHSRELPLTFGAGTKLELK
As for B1, the “OD 492 nm” value in [1] amounted to 1.55 OD; in assay [2] it was 0.112 OD; in assay [3] it was 1.55 OD; in [4], 1.66 OD; in [5], 2.63 OD; in assay [6], 4.04 OD. In addition, the “OD 492 nm” value was determined as 3.24 OD in assay [7]; 3.08 OD in [8]; 2.62 OD in assay [9]; 3.24 OD in assay [10]; 2.55 OD in assay [11]. In addition, the binding result in assay [12] was “no binding (tested: detection limit: OD>0.5)”.

B2: monoclonal antibody ‘9B1’ derived from hybridoma 9B1 (antibody, V domains shown)
VH: DVQLQESGPGLVKPSQSLSLTCSVTGYSITSGYYWNWIRQFPGNKLEWMGYISYDGSNNYNPSLKNRISITRDTSKNQFFLKLNSVTTEDTATYYCARVDGNSWYFDVWGAGTTVTVSS
VL: DIQMTQSSSSFSVSLGDRVTITCKASEDIYNRLAWYQQKPGNAPRLLISGATSLETGVPSRFSGSGSGKDYTLSITSLQTEDVATYYCQQYWSILLTFGAGTKLELK
notes: also called ‘91B1’
With B2, the “OD 492 nm” value amounted to 1.41 OD in assay [1]; 0.119 OD in assay [2]; 1.41 OD in [3]; 1.07 OD in assay [4]; 2.12 OD in assay [5]; 4.21 OD in [6]. Also, the “OD 492 nm” value turned out to be 3.3 OD in assay [7]; 1.75 OD in assay [8]; 2.52 OD in assay [9]; 3.13 OD in assay [10]; 1.74 OD in assay [11]. Also, the binding result in [12] was “no binding (tested: detection limit: OD>0.5)”.
